# Reference: patent US20250277208A1, “Method of Peptide Library Construction and Peptides Thereof” (Alcamena Stem Cell Therapeutics, LLC, priority 2024, published 2025)
# Square brackets hold non-standard residues; d marks the D form. Ends that are not written are not given here. Phe(4-F) = N[C@@H](Cc1ccc(F)cc1)C(=O)O; Gla = N[C@@H](CC(C(=O)O)C(=O)O)C(=O)O; Cha = N[C@@H](CC1CCCCC1)C(=O)O; hLeu = CC(C)CC[C@H](N)C(=O)O
# Biological target: IL-6 signaling (Homo sapiens, UniProt P05231)
# Assay: IL-6 Bioassay (Promega), luciferase reporter cells, inhibition of IL-6-induced cell signaling
# Type: cell-based
# Details: peptides incubated with IL-6 for 10 min, IL-6 0.5 nM, cells 6 hours
# Experimental: To verify the ability of the peptides of the invention to inhibit IL-6-signaling, they were tested with the IL-6 Bioassay Kit (Promega). This kit includes human cells engineered to express the IL-6 receptor and a luciferase reporter driven by a response element. When IL-6 binds, the IL-6R transduces intracellular signals resulting in luminescence (fluorescence). Inhibition of IL-6 interaction with the receptor leads to the decrease of the luciferase expression and lower fluorescence.
# The selected peptides were incubated with IL-6 for 10 min before being added to cell culture medium. […] Peptides 27 (2), 38 (2) and 45 (2) were also tested.
# The ability of peptides to inhibit IL-6 signaling pathway was tested with the IL-6 Bioassay from Promega (cat #JA2501). The bioluminescent signal is detected and quantified using Bio-Glo™ Luciferase Assay System. Different concentrations of the test peptides were mixed with IL-6 (0.5 nM) and added to the IL-6 Bioassay Cells according to the manufacturer's instructions. Cells were incubated for 6 hours in a humidified incubator at 37° C. and 5% CO2 concentration. Following incubation, 75 microliters of the Bio-Glo™ Reagent was added to the cell culture and the luminescence was measured with a Biotek Synergy HTX plate reader. Data was analyzed according to manufacturer's recommendations.
# Sequence of IL-6 signaling (P05231 30-212): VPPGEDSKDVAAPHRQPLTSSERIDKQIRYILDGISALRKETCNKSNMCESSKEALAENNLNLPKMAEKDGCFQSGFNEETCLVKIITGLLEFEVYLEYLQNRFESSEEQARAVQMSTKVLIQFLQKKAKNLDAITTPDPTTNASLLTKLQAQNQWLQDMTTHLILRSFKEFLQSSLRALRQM
row,IC50 [nM],Molecule
1,1200,"Ac-SFRDLIRMMKVCVG-NH2 [Peptide 90, SFRDLIRMMKVCVG]"

# Biological target: T1, Biotinylated recombinant human IL-6 (human, UniProt P05231 30-212, biotinylated (sites not given))
# Assay: cell-based or functional assay
# Details: not given
row,"IC50, inhibition of IL-6-induced cell signaling (IL-6 Bioassay, luciferase reporter cells) [nM]",Molecule
1,580,Ac-SVRDLLRRMKVCVG-NH2 [Peptide 27 (2)]
2,3400,Ac-TIRDLLRRMCHIVG-NH2 [Peptide 71]
3,142,Ac-ATIRDLLRRMCHIVG-NH2 [Peptide 38 (2)]
4,183,Ac-ATIRDLIRMMKVCVG-NH2 [Peptide 82]
5,72,Ac-FAFRDLLRRMCHIVG-NH2 [Peptide 45 (2)]
6,23.5,Ac-FSFRDLLRRMCHIVG-NH2 [Peptide 72]

# Biological target: T1, Biotinylated recombinant human IL-6
# Assay: SPR (Biacore), IL-6 on chip
# Details: not given
Molecule,Kd [nM],binding result
Ac-SVRDLLRRMCHCVG-NH2 (cysteine pairing not given here) [Peptide 67],,no binding (tested: 20 µM highest peptide concentration)
Ac-ATIRDLLSHNCHIVG-NH2 [Peptide 52],,no binding (tested: 20 µM highest peptide concentration)
"H-FD[hLeu]DIHLLFLPTEWEKDKNEE-OH (SMILES CC[C@H](C)[C@H](NC(=O)[C@H](CC(=O)O)NC(=O)[C@H](CCC(C)C)NC(=O)[C@H](CC(=O)O)NC(=O)[C@@H](N)Cc1ccccc1)C(=O)N[C@@H](Cc1c[nH]cn1)C(=O)N[C@@H](CC(C)C)C(=O)N[C@@H](CC(C)C)C(=O)N[C@@H](Cc1ccccc1)C(=O)N[C@@H](CC(C)C)C(=O)N1CCC[C@H]1C(=O)N[C@H](C(=O)N[C@@H](CCC(=O)O)C(=O)N[C@@H](Cc1c[nH]c2ccccc12)C(=O)N[C@@H](CCC(=O)O)C(=O)N[C@@H](CCCCN)C(=O)N[C@@H](CC(=O)O)C(=O)N[C@@H](CCCCN)C(=O)N[C@@H](CC(N)=O)C(=O)N[C@@H](CCC(=O)O)C(=O)N[C@@H](CCC(=O)O)C(=O)O)[C@@H](C)O, linear, termini not protected) [Control peptide PN-1974]",61,
Ac-FAFRDLLSHNCHIVG-NH2 [Peptide 59],,no binding (tested: 20 µM highest peptide concentration)
SVKDLQHGLRHVVG (homologous to peptide 9 without its mutations (two unmutated fragments of IL-6R); whether its termini were protected is not clear) [Control peptide C1],,no binding (tested: 20 µM highest peptide concentration)
Ac-FAFRDLLRRMKVCVG-NH2 [Peptide 60],,no binding (tested: 20 µM highest peptide concentration)
INTLLSEINSILLDIISLL (published peptide (Kobayashi et al. 2011) synthesized by the inventors; whether its termini were protected is not clear) [Control peptide RA07],,no binding (tested: 20 µM highest peptide concentration)
FD[Cha]DIHLL[Phe(4-F)]LPTEWEK[Gla]KNEE (Printed FD(Cha)DIHLL(4F)LPTEWEK(Cla)KNEE; tested in a linear form) [Control peptide PN-2519],,no binding (tested: 20 µM highest peptide concentration)
NQQLIEEIIQILHKIFEIL (published peptide (Kobayashi et al. 2011) synthesized by the inventors; whether its termini were protected is not clear) [Control peptide CA11],50800,
Ac-FSFRDLLRMMCHIVG-NH2 [Peptide 80],249,

# The next lines start with results.
Kd [nM],Molecule,binding result
1390,Ac-SVRDLIRMMKVCVG-NH2 [Peptide 64],
724,Ac-SVRDLIRRMCHIVG-NH2 [Peptide 68],
49,Ac-TIRDLLRRMCHIVG-NH2 [Peptide 71],
565,Ac-TIRDLLRMMKVIVG-NH2 [Peptide 84],
172,Ac-SVRDLLRMMCHIVG-NH2 [Peptide 69],
283,Ac-SVRDLLRRMCVIVG-NH2 [Peptide 66],
1130,Ac-SVRDLLRRMKVIVG-NH2 [Peptide 73],
150,Ac-SVRDLLRRMKHIVG-NH2 [Peptide 65],
436,Ac-ATIRDLLRRMKVCVG-NH2 [Peptide 53],
115,Ac-ATIRDLLRRMCHIVG-NH2 [Peptide 38 (2)],
128,Ac-ATIRDLIRMMCHIVG-NH2 (also called peptide variant 51) [Peptide 51],
132,Ac-FAFRDLLRMMCHIVG-NH2 [Peptide 75],
1300,Ac-FAFRDLIRMMKVIVG-NH2 [Peptide 76],
147,Ac-FAFRDLLRRMCHIVG-NH2 [Peptide 45 (2)],
47,Ac-FSVRDLIRMMKVCVG-NH2 [Peptide 87],
71,Ac-FAFRDLIRMMCHIVG-NH2 (also called variant 58) [Peptide 58],
422,Ac-ASVRDLLRRMCHIVG-NH2 [Peptide 54],
144,Ac-FSVRDLLRRMCHIVG-NH2 [Peptide 61],
265,Ac-FSFRDLIRMMKVCVG-NH2 [Peptide 93],
405,Ac-FAFRDLIRMMKHIVG-NH2 [Peptide 77],
1490,Ac-FAFRDLIRMMCVIVG-NH2 [Peptide 78],
1270,Ac-FSFRDLLRMMKVIVG-NH2 [Peptide 81],

# Biological target: T1, Biotinylated recombinant human IL-6
# Assay: SPR (Biacore), IL-6 on chip
# Details: not given
# Remark: another data set of the same source
Molecule,Kd [nM],binding result
CVYRDLLRRMCHIVG (termini not protected) [Peptide 35],,no binding (tested: 20 µM highest peptide concentration)
"SVRDLLRRMCHIVG (linear, N and C termini not protected; also called 9 (parent); parent peptide 9) [Peptide 9]",2580,
SVRDLIRMMCHIVG (termini not protected; also called variant 33) [Peptide 33],545,
SVRDLLRRMKVCVG (termini not protected) [Peptide 27],58,
SVRDLLSHNCHIVG (termini not protected) [Peptide 43],,no binding (tested: 20 µM highest peptide concentration)
SVRDLPTQMCHIVG (termini not protected) [Peptide 37],649,
ACMDLLRRMCHIVG (termini not protected) [Peptide 28],2730,
SVRDLLRRMCVFWG (termini not protected) [Peptide 49],,no binding (tested: 20 µM highest peptide concentration)
"H-SVRDLQKQMCHIVG-OH (Printed SVRDLQKOMCHIVG (the letter O is as printed, perhaps a misprint); termini not protected) [Peptide 44]",,no binding (tested: 20 µM highest peptide concentration)
ETIRDLLRRMCHIVG (termini not protected) [Peptide 24],119,
SVRDLQSTMCHIVG (termini not protected) [Peptide 47],,no binding (tested: 20 µM highest peptide concentration)
SVRDANYRMCHIVG (termini not protected) [Peptide 39],,no binding (tested: 20 µM highest peptide concentration)

# Continued, in another order:
Kd [nM],Molecule,binding result
2820,SVRDWTPRMCHIVG (termini not protected) [Peptide 48],
54,ATIRDLLRRMCHIVG (termini not protected) [Peptide 38],
92,FAFRDLLRRMCHIVG (termini not protected) [Peptide 45],
